Laboratory results taken from patent US20050025760A1 (KEIO UNIVERSITY, published 2005).

Tests used:
[1] = target: T1, recombinant protein mouse Dsg1-His (mouse, UniProt Q61495 50-564, limits assumed); experiment: ELISA on recombinant mouse Dsg1-His
T1 construct: not shown: His tag
T1 sequence (looked up): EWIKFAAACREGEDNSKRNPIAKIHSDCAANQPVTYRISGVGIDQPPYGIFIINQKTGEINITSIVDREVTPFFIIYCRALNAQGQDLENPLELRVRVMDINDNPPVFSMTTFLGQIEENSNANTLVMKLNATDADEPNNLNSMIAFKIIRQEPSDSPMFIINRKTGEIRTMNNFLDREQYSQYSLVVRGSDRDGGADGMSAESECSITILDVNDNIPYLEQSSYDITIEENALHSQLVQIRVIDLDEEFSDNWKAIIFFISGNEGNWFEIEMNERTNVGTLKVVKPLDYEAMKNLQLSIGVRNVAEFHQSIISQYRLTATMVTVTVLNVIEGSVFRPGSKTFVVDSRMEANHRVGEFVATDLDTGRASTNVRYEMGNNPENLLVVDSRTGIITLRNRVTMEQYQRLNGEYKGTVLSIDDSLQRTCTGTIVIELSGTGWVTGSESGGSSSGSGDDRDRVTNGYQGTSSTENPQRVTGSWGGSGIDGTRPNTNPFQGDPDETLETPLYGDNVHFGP
From the text: (§1) The baculovirus vectors, pEVmod-Dsg3-His and pEVmod-Dsg1-His, pEVmod-mouse Dsg3-His and pEVmod-mouse Dsg1 -His, that were constructed according to the method as described previously (J. Immunol. 159, 2010-2017, 1997) were used. These recombinant baculoviruses were infected to insect cells, High Five (Invitrogen Corporation), then the recombinant protein human Dsg3-His and Dsg1-His, recombinant protein mouse Dsg3-His and Dsg1-His were collected from the culture media, respectively. In addition, purification of these recombinant proteins was conducted using Ni-NTA column. These purified recombinant proteins were coated on ELISA (Enzyme Linked Immunosorbent Assay) plates, respectively, 50 μl each of the culture supernatant of the anti-Dsg3 monoclonal antibody-producing hybridoma was added to each well, and ELISA was practiced according to the method as previously described (J Clin Invest 105, 625-631, 2000). PV mouse model 1 serum with moderate degree of antibody titer was selected as a positive control, and 1 serum of normal mouse serum was selected as a negative control. Absorbance was determined at wavelength 450 nm (Bio-rad, Hercules, Calif. USA), and the index was shown by the following formula. Index={OD(specimen)−OD(negative control)}/{OD(positive control)−OD(negative control)}×100 A-2 (Living Cell Staining using Culture Mouse Keratinocyte PAM 212)

[2] = target: T2, recombinant protein human Dsg1-His (human, UniProt Q02413 50-548); experiment: ELISA on recombinant human Dsg1-His
T2 construct: extracellular domain; Baculovirus product; not shown: C-terminal His tag
T2 sequence (looked up): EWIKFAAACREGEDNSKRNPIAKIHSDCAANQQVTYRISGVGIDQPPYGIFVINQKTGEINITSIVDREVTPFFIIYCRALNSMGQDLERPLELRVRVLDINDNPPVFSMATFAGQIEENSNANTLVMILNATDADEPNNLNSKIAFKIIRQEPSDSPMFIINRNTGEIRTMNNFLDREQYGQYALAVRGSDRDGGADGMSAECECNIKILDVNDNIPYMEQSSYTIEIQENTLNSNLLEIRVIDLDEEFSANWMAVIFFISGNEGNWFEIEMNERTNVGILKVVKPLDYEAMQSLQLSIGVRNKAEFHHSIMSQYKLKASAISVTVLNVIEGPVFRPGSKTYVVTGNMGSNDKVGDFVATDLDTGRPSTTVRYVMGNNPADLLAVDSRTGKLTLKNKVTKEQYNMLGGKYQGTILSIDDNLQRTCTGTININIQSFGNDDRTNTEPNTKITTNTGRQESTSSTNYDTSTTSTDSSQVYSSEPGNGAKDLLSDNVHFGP
From the text: as §1

Dsg3-M2 = target: T3, Dsg3-M2 (human, UniProt P32926 50-615, T31N; K33Q; I34V); experiment: immunoprecipitation of point-mutated molecules (FIG. 5)
T3 construct: extracellular domain; also called point-mutated human Dsg3 molecule M2; not shown: His tag of vector pEVmod-His
T3 sequence (looked up): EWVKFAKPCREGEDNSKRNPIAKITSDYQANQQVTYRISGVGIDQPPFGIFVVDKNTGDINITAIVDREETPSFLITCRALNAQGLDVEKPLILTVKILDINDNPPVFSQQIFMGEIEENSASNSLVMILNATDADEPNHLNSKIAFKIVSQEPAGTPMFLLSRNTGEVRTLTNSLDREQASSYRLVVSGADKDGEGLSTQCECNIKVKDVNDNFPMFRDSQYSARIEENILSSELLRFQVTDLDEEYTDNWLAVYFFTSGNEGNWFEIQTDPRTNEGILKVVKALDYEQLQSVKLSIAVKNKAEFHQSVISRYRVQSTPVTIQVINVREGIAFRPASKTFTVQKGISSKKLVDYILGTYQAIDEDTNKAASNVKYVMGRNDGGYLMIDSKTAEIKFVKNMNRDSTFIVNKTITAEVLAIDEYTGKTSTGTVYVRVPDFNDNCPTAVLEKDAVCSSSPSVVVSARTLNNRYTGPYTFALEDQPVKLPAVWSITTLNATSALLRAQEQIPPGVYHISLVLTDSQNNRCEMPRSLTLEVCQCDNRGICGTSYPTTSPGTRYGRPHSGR

binding result [1]: no binding | binding result [2]: no binding | binding result (Dsg3-M2): binds
B1: anti-Dsg3 monoclonal antibody AK23 (antibody, mouse IgG1, V domains shown)
VH: QVQLQQSGTELVKPGASVKLSCKSSGYTFTSYWINWVKQRPGQGLEWIGNINPSNGGINYNEKFKSKATLTVDKSSSTAYMQLKSLTSEDSAVYYCARGGYDGYPWGQGTTVTVS
VL: DIQMTQSPKFLLVSAGDRVTITCKASQSVSYDVAWYQQKPGQSPKLLISYASNRYTGVPDRFTGSGYGSDFTFTISTVQTEDLAVYFCQQDYSSPWTFGGGTKLELKR
notes: Mouse IgG1 kappa hybridoma antibody
